Results reported in US20210030857A1 (NGM BIOPHARMACEUTICALS, published 2021).

T1: mouse beta klotho expressed on cells (mouse (Mus musculus), UniProt Q99N32 1-1043)
T1 construct: also called Mouse KLB
T1 sequence: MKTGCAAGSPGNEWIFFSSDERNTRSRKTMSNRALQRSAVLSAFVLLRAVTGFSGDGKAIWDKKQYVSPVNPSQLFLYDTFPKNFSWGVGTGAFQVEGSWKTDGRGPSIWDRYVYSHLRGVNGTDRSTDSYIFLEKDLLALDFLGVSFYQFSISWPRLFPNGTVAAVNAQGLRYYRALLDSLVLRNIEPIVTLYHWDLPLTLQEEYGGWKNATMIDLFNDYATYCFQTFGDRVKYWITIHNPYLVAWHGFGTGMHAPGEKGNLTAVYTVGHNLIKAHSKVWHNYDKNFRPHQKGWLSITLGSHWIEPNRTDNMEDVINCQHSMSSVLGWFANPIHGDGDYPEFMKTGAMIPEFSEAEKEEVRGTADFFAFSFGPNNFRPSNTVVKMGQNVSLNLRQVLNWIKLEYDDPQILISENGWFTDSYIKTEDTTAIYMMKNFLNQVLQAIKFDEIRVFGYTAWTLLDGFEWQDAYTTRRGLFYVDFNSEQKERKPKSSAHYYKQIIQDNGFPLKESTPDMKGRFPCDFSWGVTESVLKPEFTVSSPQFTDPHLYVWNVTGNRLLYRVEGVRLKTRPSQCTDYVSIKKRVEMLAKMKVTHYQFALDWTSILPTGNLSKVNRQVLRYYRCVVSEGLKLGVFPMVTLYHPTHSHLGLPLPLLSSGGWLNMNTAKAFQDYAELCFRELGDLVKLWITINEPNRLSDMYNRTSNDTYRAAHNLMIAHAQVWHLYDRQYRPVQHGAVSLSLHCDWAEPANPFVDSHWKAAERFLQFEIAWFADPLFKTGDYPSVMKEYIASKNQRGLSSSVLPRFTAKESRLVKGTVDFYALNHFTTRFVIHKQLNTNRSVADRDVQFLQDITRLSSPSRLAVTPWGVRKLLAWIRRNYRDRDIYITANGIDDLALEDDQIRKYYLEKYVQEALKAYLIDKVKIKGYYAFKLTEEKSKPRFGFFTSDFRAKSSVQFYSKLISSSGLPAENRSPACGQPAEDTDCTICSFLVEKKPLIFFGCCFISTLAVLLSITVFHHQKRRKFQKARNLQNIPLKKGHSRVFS

T2: cynomolgus beta klotho expressed on cells (cynomolgus monkey (Macaca fascicularis), UniProt Q86Z14 1-1044 (human entry))
T2 construct: also called Cynomolgus KLB
T2 chain: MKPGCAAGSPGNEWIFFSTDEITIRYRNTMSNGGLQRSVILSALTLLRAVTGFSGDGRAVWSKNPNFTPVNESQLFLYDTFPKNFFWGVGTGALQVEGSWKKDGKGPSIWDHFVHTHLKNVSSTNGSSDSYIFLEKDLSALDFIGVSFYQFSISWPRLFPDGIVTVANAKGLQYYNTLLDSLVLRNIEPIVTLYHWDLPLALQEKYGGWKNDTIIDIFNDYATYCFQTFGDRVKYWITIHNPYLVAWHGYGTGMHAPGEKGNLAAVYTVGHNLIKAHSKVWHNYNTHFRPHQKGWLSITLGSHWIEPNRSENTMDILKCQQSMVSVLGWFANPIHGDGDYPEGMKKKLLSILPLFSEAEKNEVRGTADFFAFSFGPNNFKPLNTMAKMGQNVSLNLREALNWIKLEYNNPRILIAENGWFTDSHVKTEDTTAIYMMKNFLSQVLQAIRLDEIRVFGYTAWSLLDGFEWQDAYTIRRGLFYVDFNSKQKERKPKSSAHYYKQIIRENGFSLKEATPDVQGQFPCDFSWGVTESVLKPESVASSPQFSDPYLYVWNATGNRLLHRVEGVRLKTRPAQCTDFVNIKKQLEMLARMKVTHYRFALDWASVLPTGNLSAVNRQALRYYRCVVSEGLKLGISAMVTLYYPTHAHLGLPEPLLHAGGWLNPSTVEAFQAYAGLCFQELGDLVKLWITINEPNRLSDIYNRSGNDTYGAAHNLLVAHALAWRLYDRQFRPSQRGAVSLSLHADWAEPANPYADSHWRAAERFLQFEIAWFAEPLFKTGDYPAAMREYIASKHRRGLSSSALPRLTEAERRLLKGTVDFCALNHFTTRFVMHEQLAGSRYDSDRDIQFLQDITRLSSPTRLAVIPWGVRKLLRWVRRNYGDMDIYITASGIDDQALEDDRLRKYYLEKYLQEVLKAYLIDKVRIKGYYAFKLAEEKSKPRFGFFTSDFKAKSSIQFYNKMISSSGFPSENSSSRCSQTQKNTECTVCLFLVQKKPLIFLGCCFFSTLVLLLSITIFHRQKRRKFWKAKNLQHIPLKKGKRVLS

B1: humanized 5H23 antibody (VH SEQ ID NO: 271 and VL SEQ ID NO: 276) (antibody, V domains shown)
VH: QVQLQQSGAEVKKPGASVKVSCKASGYTFTSYDINWVRQAPGQGLEWIGWIYPGDGSTKYNEKFKGKATITRDTSASTAYMELSSLRSEDTAVYFCARSDYYGSRSFAYWGQGTLVTVSS
VL: DIVMTQSPDSLAVSLGERATINCRASKSVSTSGYVYMHWYQQKPGQPPKLLIYLASYLESGVPDRFSGSGSGTDFTLTISSVQAEDVAVYYCQHSRDLTFPFGGGTKLEIK
notes: also called h5H23; h5H23 (Prep 1)
B2: negative control antibody, anti-keyhole limpet hemocyanin (KLH) antibody (antibody, human IgG1, kappa, V domains shown)
VH: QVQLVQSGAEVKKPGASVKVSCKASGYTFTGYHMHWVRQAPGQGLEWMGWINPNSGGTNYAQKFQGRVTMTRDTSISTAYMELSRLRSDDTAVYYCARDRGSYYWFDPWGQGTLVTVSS
VL: DIQMTQSPSSLSASVGDRVTITCRASQGIRNDLGWYQQKPGKAPKRLIYAASSLQSGVPSRFSGSGSGTEFTLTISSLQPEDFATYYCLQHNSYPLTFGGGTKVEIKR
notes: also called Neg; Control; anti-KLH antibody

What was measured:
Test in all cases: FACS on transfected Expi293 cells
[1] = target: T1, mouse beta klotho expressed on cells
Protocol: (§1) Studies were performed in order to localize the binding site on human KLB of anti-beta klotho antibodies in the 5H23 epitope bin, including 5H23 as described in Example 3, with sequences shown in Tables 1-10 and FIGS. 1-3, and human anti-beta klotho antibodies in the 5H23 epitope bin, such as humanized 5H23 antibodies (e.g., VH SEQ ID NO: 271 and VL SEQ ID NO: 276). For example, FACS-based binding assays for domain mapping were performed on Expi293 cells (Life Technologies, A14635) that were transiently transfected with plasmids encoding variants of KLB: human, mouse, cynomolgus, a chimeric version in which the KL1 domain sequence of mouse KLB (M1-F506) replaces the KL1 domain of human KLB (M1-F508) to create mouse-human KLB (SEQ ID NO: 376), and a second chimera in which the human KL1 sequence (M1-F508) replaces the KL1 domain of mouse KLB (M1-F506) to create human-mouse KLB (SEQ ID NO: 374). Additionally, the expression vector pYD7 harboring no KLB sequence was transfected as a negative control.
(§2) In some studies, binding of a purified sample of a humanized 5H23 antibody (e.g., VH SEQ ID NO: 271 and VL SEQ ID NO: 276) to KLB variants was determined by FACS analysis. […] After washing with PBS/1% BSA/0.1% azide, transfected cells were then co-incubated with labeled anti-human Fc (Jackson lmmunoresearch) for 30 minutes at 4° C. After washing with PBS/1% BSA/0.1% azide, cells were acquired on flow cytometer (FACS Calibur) and analyzed by cytometric software (FlowJo). To display the resulting data, graphs plotting the number of cells as a function of fluorescence intensity were generated, and the median fluorescence intensity (MFI) was determined for each sample as shown in Table 30.

[2] = target: T3, human-mouse KLB chimeric protein (human KLB (M1-F508)-mouse KLB (P507-S1043)) on cells (human/mouse chimera, UniProt Q99N32 1-1043 (mouse entry))
T3 construct: also called Human-Mouse chimeric KLB; chHuMo
Protocol: as §1, §2

[3] = target: T2, cynomolgus beta klotho expressed on …
Protocol: as §1, §2

Row | Binder | binding result [1] | binding result [2] | binding result [3]
1 | B1 | no binding (tested: 1 µg/ml) | no binding (tested: 1 µg/ml) | –
2 | B2 | – | – | no binding (tested: 1 µg/ml)
